Target: Human IL13Rα2 (human, UniProt Q14627 27-380)
Assay: SPR; Biacore T200; human IL13Rα1 (2,800 RU) or IL13Rα2 (3,100 RU) amine-coupled to CM5 chips in 10 mM sodium acetate pH 4.5; IL13-Fc proteins injected in twofold serial dilutions at constant flow (30 ml/min as printed); association 180 s, dissociation 600 s; regeneration 10 mM glycine pH 2.0; 1:1 fitting model
Conditions: both partners purified

Sequence of Human IL13Rα2 (Q14627 27-380): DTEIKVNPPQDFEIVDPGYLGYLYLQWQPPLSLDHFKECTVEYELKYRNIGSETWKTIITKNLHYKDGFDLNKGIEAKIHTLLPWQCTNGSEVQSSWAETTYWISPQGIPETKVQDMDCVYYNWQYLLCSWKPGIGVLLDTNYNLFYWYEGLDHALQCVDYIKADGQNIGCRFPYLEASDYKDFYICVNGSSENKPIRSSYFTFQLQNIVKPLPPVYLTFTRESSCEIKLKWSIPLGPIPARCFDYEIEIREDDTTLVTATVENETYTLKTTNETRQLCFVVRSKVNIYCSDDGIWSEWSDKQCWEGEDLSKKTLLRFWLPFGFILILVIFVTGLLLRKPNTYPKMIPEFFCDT

Kd: 7.4 nM | koff: 1.26e-05 s⁻¹ | kon: 1670 M⁻¹ s⁻¹
B1: YYB-103 IL13 (modified IL13.E13K.R66D.S69D.R109K, antigen binding domain of YYB-103) fused with human Fc (Fc fusion)
chain: SPGPVPPSTALRKLIEELVNITQNQKAPLCNGSMVWSINLTAGMYCAALESLINVSGCSAIEKTQDMLDGFCPHKVSAGQFSSLHVRDTKIEVAQFVKDLLLHLKKLFKEGQFN
modifications: Fused to human Fc (carrier left out; probably dimeric through Fc). Numbering offset +32 is the only one that fits E13, R66, S69 and R109 together. / Amine-coupled to CM5 chip; extracellular domain …
